Measurements from the DeepSol protein solubility set.

Experiment: soluble on expression in E. coli; label from the status in PepcDB or PDB records

Sequence | soluble on expression in E. coli
MSLKPWLITPERLTSEQIGLLDHFFDRGLERLHLRLPSAGEEDYSQVIEAVAACYRRRIVVHDHPRLVGRYGLCGLHLPERVWKGMTDRPQLPDGCTVSASCHAIEDIESFPFRLDYCFLSPVFDSLCKVGYAGRFSPDSLGDRLQRLHLPVVALGGITPDRLPQLRRAGFASAAALGYVWLVEGRELMRWQELCTPAVICVGGVDPSAGAGITADVRTAENMGVRAYTVATAITFQGSGSYRGERWVDSADIIRQIESLSAEMEPAVAKIGLIRDSDTLSLVVDCLKKVFPSIRIVWDPVLRASADSSAGQADRFNLEDITALSRIDFITPNLPEARHLLGCEPDDETLLDFYRRSGVGLVLKGGHAGESVVTDRIVYDGRCEALRLLRGGTGKHGTGCAHSTAFAAALALEQEPFTAAGMAQLYVSRLRERASGLLAMHKDLPVDPVVRLMSEIDLQFITHRQPDLSELEEAEAVCRIGVRWVQLRMKEASDEEMLHTACAVKAVCRHHGALFVVNDRVEIARQVDADGVHLGKEDMAIVEARRILGSNKIIGRTCNTMEDVRRAYAEGADYVGIGPYRYTETKQRLAPVLGLEGYKAIAACMQAEGIRLPAFAIGGIEDADIPLIRDCGIGGIAVSGSLIRKIKKEGHHHHHH | soluble
MSLKRFYSLFALPLITAATWANEPLPDRQTELPAVKKENHGEYLQPRDLSKIPNTAFGDQVKRGYSLFVNSQQMRGKYVGNEQNCVNCHMEAGRKANAAPLWAAYMAYPAYRKKNDRVNSYADRIQGCFEYSMNGKAPAYDSPEIVALSAYAYWLAMGGLLDSYGMNDEAVPELDIKALQVGGKAQDFPLPDAIAQALPVKERGNLAGRGYPKIAAPKQEPSPERGALVYEKNCETCHRADGSGIKGTDGHSYIPPLWGEFAYNWGAGMHRINTAAYFIYENMPLGKSVQLTEQEAWDVAAYINSHERPQDPRFKGNVTANAEKYHQHQGYYGKTLNGKQIGKNAFASGTEGHHHHHH | not soluble
MSLKRIDRIYMYVKEKTAHLTKAEYDQGVTTQEIAEVLGIQRTNSSKDLNQLVREGKLIKTDGRPVRYIYQTLVTHVKPVTKHVVSYKETPVSEEKNTLQIDTKDIFAKIIGANGSMKNSVEQAKAAILYPPRGLNCLITGPTGSGKTYFAHAMYHFAKAHHVIDEETELIVFNCADYANNPELLMSHLFGYAKGAFTGADEEKMGIIDQADGGMLFLDEIHRLPPEGQEMIFYFMDHGTYSRLGETTKSHEANVRIVGATTEDPGSSLLETFVRRIPINIKLPAFEKRPANEKVDLVKIMIAHEANRTQRKISLTEDVAKALIGSVTYGNIGQLKSNIQLVCARGFLNHMQSPEISITIDDLTEGIRSGLIQLASNRSAMAELSKILEPKITVAPNEGHHHHHH | soluble
MSLKRVLAAEYVRMSTEHQKYSLDNQSEYIREYSLRNNITIIHTYNDAGKSGLNISGRPGLKALLDDVINKKITISAILVYDVSRFGRFQDADEAGHYSHLLRKNGVKIIYCAEPFSEEHPEMFMLGLSFSRHGAASYSRNLSEKVFLGQVNLIKRGYHQGGVAGYGLRRLLIDEHEGHHHHHH | not soluble
MSLKSFNEIIMKVKSKEMKKVAVAVAQDEPVLEAVRDAKKNGIADAILVGDHDEIVSIALKIGMDVNDFEIVNEPNVKKAALKAVELVSTGKADMVMKGLVNTATFLRSVLNKEVGLRTGKTMSHVAVFETEKFDRLLFLTDVAFNTYPELKEKIDIVNNSVKVAHAIGIENPKVAPICAVEVINPKMPSTLDAAMLSKMSDRGQIKGCVVDGPLALDIALSEEAAHHKGVTGEVAGKADIFLMPNIETGNVMYKTLTYTTDSKNGGILVGTSAPVVLTSRADSHETKMNSIALAALVAGNKEGHHHHHH | soluble
MSLKSSFYYHRTMLGDKDKYADLKQRITALYHKHKGRYGYRRMTVALKHLGVHHNHKLIAKLMKQLTLSAKIRRQKYRSYKGQQGKIAKNYLKRRFKASKPHKRWLTDITEFKVGDHKLYLSPILDCYNNEIVSYTLSRRPTYDLVSQMLDKALDKTGKHRHKTLMLHSDQGWHYQMKPFREMLKKHQIKQSMSRKGNCLDNALMEGFFGTLKCETIYIEKPKTIEALERQIHEYIHYYNHERIQLKLKGLSPVQYRTQSLKEGHHHHHH | not soluble
MSLKTPLKDEVFSFIDLETTGSCPIKHEILEIGAVQVKGGEIINRFETLVKVKSVPDYIAELTGITYEDTLNAPSAHEALQELRLFLGNSVFVAHNANFDYNFLGRYFVEKLHCPLLNLKLCTLDLSKRAILSMRYSLSFLKELLGFGIEVSHRAYADALASYKLFEICLLNLPSYIKTTMDLIDEGHHHHHH | not soluble
MSLKTTTSSTPSDRITWVRISSCYLPLATPISDAKVLTGRQKPMTEIAILFAEIETAGGHQGLGFSYSKRAGGPGQFAHAREIAPALIGEDPSDIAKLWDKLCWAGASAGRSGLSTQAIGAFDVALWDLKAKRAGLSLAKLLGSYRDSVRCYNTSGGFLHTPIDQLMVNASASIERGIGGIKLKVGQPDGALDIARVTAVRKHLGDAVPLMVDANQQWDRPTAQRMCRIFEPFNLVWIEEPLDAYDHEGHAALALQFDTPIATGEMLTSAAEHGDLIRHRAADYLMPDAPRVGGITPFLKIASLAEHAGLMLAPHFAMELHVHLAAAYPREPWVEHFEWLEPLFNERIEIRDGRMLVPTRPGLGLTLSGQVKAWTREEAQVGTRPEGHHHHHH | soluble
MSLKVATFIEPGKMVITDTPKPVIEQETDAVIKIVRACVCGSDLWWYRGISKRESGSFAGHEAIGIVEEVGTKVTDVSKGDFVIVPFTHGCGQCPSCKAGFDGNCTNHQAAKNVGYQGQYLRYTNANWALVKIPGQPSDYDNETLNSLLTLSDVMATGYHAAATAEVKEGDTVVVMGDGAVGLCGVIAAKMLGANRIIAMSRHKDRQELALTFGATDIVEERGDEAVKRVLDLTNQAGADAVLECVGTEQSVDTATQIARPGAVIGRVGIPQNPDMNTNNLFWKNIGLRGGIASVTTFDKSVLLDAVLTHKINPGLVFTKSFVLDDIQKAYEAMDKRDAIKSLVIVDEGHHHHHH | soluble
MSLKVGISMFNILQSTQLSSNTFDFWLEAPRIATHAQAGQFVILRIDEKGERIPLTIAETNPQAGSIRIIFQVIGKTTAALSQLKTSDSLLDITGPLGMPTEVKQYGTVMVVGGGVGIAAIYPIIKALKEAGNRVITILGARTAELVLLQEECRRYSDELIITTDDGSLGKKGLVTEAMEEVIARESVACSWAIGPSIMMKFCTLTAEKHQLPIYVSLNPIMIDGTGMCGGCRVTVDGTMKFACVDGPEFKGNEVNWDEFINRMKQYQEEEAVCFTDRLKEQVEKNGEGGSHHHHHH | soluble
MSLKVHGVILMNIEEWEEYRYVEAGIKESITLIEDPGLKKMVEHVCHSGGKRIRPIILLLVSEICSGSYSRSLNAALAVEMMHSASLIHDDLLDQGLVRRNLPSAPEKFGPSGALLCGDYLIAKSIAFISPYGEKVIQDFGKAGMDMAEGEVLDLKLEDESFGENDYFKCIYKKTASLFAISASIGAYTGGAEEELAERFSHFGNALGTAYQIVDDILEFLEVVEGKESKFTSETLPHIYMKSTSKEEALKKSIDCVKLHVAAAKETLETFRECPARDKLFQITDYITVDMLENLEGHHHHHH | soluble
MSLKVPGIRNYDGPAGGWGALKATATAVREQMDTLKAPLTLMRTNQPDGFDCPGCAWPDKEHKSTFQFCENGAKAVTWEATNKRVTPAFFAQHPVTSLLQRSDYELEDLGRLTEPLVYDRASDTFKPVAWQDAFARIGEILRSLQPEQVEFYTSGRASNEAAYLYQLFAREYGCNNFPDCSNMCHEPTSVGLPRSIGIGKGTVSLEDFDLCELIISIGHNPGTNHPRMMGTLHEASRRKVPIMVFNPLRERALERFADPQNMVEMATYGSTRIASSYFQVKAGGDAAAIKGIMKALLALEDSLGQVLDQAFIAEHTQGFEALAADLHATAWADIEQASGLHQADLEMVAAAYAKSNATIVTYGMGITQHNEGTANVRLICDLLMLRGNLGKPGAGICPLRGHSNVQGNRTVGITEKPSPAFLDKLQQTFGFTPPAHHGHDAVQAMQAMIAGSAKALLCLGGNFAVALPDPGQCFPAMGKLDLSVHIATKLNRSHLLVARETFLFPCLGRTELDMQDGLRQAITVEDSMSMVHASAGKLAPASEFLLSEPAIVAGMARATLPGSRVPWLELVADYDKIRDLIEQTVPGFDDYNARIRVPGGFRMPLAAAERQWLTPSGKAEFFVFPGLHEDKEVDGADVLRLITLRSHDQYNTTIYALDDRYRGVFGRRDVLFISPADLAARGLAHGDLVDIETVIGGRRLRYEKITAIEYKIANGTVGAYYPEANRLVPLDYLDVDSGTPSYKSVPVRVLRSSPAEGHHHHHH | soluble
MSLKVRLEDVAKRLGVSVATVSRSLAGHPAISSETRGAVRAVASELGYRIPTQGRRGKKSSTKLIGVVVGALHNRFMTLLLTHLHDALQELGYQMTLVIDSMNDSQNLQALRPLIEGYLDGLIFATATLDSPVIAEMQRRAIPLVLVVRSVDDVRVDTVEIDNVHAGAVAAEHLYQLGHRRIGLVMGPQNTSTSRDRAKGALTYLADIGISSEAVTLMWSDYTTEAGYSSAMAIFNEADPVTAIVAGNDTIALGVLEAAARRAIKVPEQLSVIGFDDMPLAGSPLVALTSIRQPVRAMARTAARRLIDRIRAGGMGAPVHDVLPIQLVRRETTGPREGHHHHHH | soluble
MSLKVVFVSYEVFPFAKVGGLADVAGTLPKYLKKHGVDVTIVMPKHRIVEKNAEKFGYEIKKVAESLSVSHVKTDQKFDIYESVLPGSDVKTYFVANDYYFSAEDVYAGPDLGEQAIFFCAATLDLVKHLDLKPDIVHVNDWQTALIPVYLKTVYRDDPYFSRTATVLTIHNLGYQGVFDPKYLSFAGLPDYVYTIDGLEFYGQLNFLKGGIVFSDVINTVSPTYAEEIQTEEYGEKLDGVLRMRSKDLYGILNGIDYELYNPATDRYIYVNYDVNRLELKWENKVKLQEELGLPVNKETAVAGLISRLVPQKGLDLLVDVMDYLTLFDLQIVVLGTGDEQYENAFRKFQERYPDKVSANIKFDVELAQKIYAGADIFLMPSRYEPCGLGQMFSMRYGTIPVVRYTGGLADTVKEYDPQSMEGTGFGFKKYDSAHLLKAVSKALHFYYREKDHWRRIMTNAMNTDLSWDRSAKEYVDLYKKALAKVGREGHHHHHH | soluble
MSLKYAVLGATGLLGHHAARAIRAAGHDLVLVHRPSSQIQRLAYLEPECRVAEMLDHAGLERALRGLDGVIFSAGYYPSRPRRWQEEVASALGQTNPFYAACLQARVPRILYVGSAYAMPRHPQGLPGHEGLFYDSLPSGKSSYVLCKWALDEQAREQARNGLPVVIGIPGMVLGELDIGPTTGRVITAIGNGEMTHYVAGQRNVIDAAEAGRGLLMALERGRIGERYLLTGHNLEMADLTRRIAELLGQPAPQPMSMAMARALATLGRLRYRVSGQLPLLDETAIEVMAGGQFLDGRKAREELGFFSTTALDDTLLRAIDWFRDNGYFNTEGHHHHHH | soluble
MSLKYDVVVIGAGGAGYHGAFRLAKAKYNVLMADPKGELGGNCLYSGCVPSKTVREVIQTAWRLTNIANVKIPLDFSTVQDRKDYVQELRFKQHKRNMSQYETLTFYKGYVKIKDPTHVIVKTDEGKEIEAETRYMIIASGAETAKLRLPGVEYCLTSDDIFGYKTSFRKLPQDMVIIGAGYIGLEIASIFRLMGVQTHIIEMLDRALITLEDQDIVNTLLSILKLNIKFNSPVTEVKKIKDDEYEVIYSTKDGSKKSIFTNSVVLAAGRRPVIPEGAREIGLSISKTGIVVDETMKTNIPNVFATGDANGLAPYYHAAVRMSIAAANNIMANGMPVDYVDVKSIPVTIYTIPSLSYVGILPSKARKMGIEIVEAEYNMEEDVSAQIYGQKEGVLKLIFERGSMRLIGAWMIGVHSQYLINELGLAVAYGLNAKQLASFAEQHPSTNEIISYTARKVIEGHHHHHH | soluble
MSLKYEGSISINATKDQILKLLDNPDQVAQCFPGIKSFSKEGEEYKVVGVTGIGFIKGEYRANVRFEKIDDNKRKIIAKGTGMNSNVDIDAIAEALDGKINYSADVKVAGVLASVGARLMGSAVEKIINDLFNCIKERVIKEGHHHHHH | soluble
